Measured values as given in patent publication US20250076311A1 (Chugai, published 2025).

B1: M103205H795-P1528m/M103202L889-SK1 (antibody, human IgG1, kappa, name in EU numbering)
heavy: not shown
light: DIVMTQSPATLSLSPGERATLSCTSSQSVYHANWLSWFQQKPGQPPKLLIYWASTLAYGVPSRFSGSGSGTDFTLTISSLQPEDAATYYCAGGYGGGRYAFGQGTKVEIKRTVAAPSVFIFPPSDEQLKSGTASVVCLLNNFYPREAKVQWKVDNALQSGNSQESVTEQDSKDSTYSLSSTLTLSKADYEKHKVYACEVTHQGLSSPVTKSFNRGEC
notes: copies: 2 + 2
B2: M103205H795-P1541m/M103202L889-SK1 (antibody, human IgG1, kappa, name in EU numbering)
heavy: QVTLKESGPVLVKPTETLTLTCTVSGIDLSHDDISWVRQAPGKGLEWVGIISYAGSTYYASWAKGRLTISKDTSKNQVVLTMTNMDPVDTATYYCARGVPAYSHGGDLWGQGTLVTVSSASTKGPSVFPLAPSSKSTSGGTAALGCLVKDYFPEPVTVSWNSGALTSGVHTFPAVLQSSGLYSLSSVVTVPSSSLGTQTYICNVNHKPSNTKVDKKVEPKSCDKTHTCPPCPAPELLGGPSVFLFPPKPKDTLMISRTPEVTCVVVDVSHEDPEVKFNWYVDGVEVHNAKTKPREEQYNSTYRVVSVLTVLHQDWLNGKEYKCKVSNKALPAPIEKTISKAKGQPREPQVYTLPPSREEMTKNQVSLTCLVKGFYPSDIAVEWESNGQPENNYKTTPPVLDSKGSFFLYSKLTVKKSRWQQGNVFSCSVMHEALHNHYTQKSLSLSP
light: B1 light
notes: copies: 2 + 2
B3: M103205H795-P1540m/M103202L889-SK1 (antibody, human IgG1, kappa, name in EU numbering)
heavy: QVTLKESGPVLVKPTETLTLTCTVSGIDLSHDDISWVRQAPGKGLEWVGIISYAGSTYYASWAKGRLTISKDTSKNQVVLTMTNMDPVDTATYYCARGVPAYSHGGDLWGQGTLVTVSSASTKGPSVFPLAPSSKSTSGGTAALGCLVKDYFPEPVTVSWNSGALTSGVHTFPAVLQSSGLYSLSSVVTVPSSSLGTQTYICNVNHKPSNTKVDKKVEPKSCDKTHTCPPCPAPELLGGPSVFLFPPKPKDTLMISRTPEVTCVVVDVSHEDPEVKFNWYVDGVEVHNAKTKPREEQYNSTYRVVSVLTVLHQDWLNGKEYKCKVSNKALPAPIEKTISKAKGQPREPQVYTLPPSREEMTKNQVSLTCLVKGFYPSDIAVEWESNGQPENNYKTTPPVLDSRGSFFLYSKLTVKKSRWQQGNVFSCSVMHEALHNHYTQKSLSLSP
light: B1 light
notes: copies: 2 + 2
B4: M103205H795-P1538m/M103202L889-SK1 (antibody, human IgG1, kappa, name in EU numbering)
heavy: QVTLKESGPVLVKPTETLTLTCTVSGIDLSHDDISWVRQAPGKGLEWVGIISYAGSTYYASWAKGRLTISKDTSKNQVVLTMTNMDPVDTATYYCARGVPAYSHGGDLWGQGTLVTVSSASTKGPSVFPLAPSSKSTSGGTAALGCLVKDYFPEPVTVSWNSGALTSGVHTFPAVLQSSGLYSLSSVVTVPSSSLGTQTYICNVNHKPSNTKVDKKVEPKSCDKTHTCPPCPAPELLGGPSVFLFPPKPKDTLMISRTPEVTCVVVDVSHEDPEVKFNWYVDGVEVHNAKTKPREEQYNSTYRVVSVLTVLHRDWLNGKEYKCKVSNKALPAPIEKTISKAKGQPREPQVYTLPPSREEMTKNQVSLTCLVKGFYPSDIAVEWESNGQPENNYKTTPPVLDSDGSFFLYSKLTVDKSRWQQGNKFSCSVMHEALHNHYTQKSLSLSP
light: B1 light
notes: copies: 2 + 2
B5: M103205H795-P1531m/M103202L889-SK1 (antibody, human IgG1, kappa, name in EU numbering)
heavy: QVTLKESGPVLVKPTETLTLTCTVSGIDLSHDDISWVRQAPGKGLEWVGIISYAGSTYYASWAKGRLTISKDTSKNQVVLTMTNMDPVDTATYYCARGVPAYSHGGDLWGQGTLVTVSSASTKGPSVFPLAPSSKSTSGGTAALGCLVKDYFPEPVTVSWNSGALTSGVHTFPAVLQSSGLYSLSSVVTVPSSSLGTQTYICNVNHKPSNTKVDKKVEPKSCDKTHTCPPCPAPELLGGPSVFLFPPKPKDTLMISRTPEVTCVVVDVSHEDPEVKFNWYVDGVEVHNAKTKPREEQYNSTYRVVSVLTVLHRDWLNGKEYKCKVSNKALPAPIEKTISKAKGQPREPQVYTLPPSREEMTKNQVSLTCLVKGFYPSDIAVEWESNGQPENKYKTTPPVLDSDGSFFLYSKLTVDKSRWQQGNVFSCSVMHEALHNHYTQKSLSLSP
light: B1 light
notes: copies: 2 + 2
B6: M103205H795-P1530m/M103202L889-SK1 (antibody, human IgG1, kappa, name in EU numbering)
heavy: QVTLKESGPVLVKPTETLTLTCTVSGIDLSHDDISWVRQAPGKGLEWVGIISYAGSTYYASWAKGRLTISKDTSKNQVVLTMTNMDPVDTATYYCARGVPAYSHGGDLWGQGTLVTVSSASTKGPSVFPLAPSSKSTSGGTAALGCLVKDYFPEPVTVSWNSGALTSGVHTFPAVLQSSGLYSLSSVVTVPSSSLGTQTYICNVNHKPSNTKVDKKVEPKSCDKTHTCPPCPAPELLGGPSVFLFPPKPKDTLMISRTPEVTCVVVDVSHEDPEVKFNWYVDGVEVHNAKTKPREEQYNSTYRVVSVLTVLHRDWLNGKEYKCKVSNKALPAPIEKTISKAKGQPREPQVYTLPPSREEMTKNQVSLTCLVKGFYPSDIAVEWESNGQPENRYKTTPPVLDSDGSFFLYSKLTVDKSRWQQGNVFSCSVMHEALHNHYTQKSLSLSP
light: B1 light
notes: copies: 2 + 2
B7: M103205H795-P1543m/M103202L889-SK1 (antibody, human IgG1, kappa, name in EU numbering)
heavy: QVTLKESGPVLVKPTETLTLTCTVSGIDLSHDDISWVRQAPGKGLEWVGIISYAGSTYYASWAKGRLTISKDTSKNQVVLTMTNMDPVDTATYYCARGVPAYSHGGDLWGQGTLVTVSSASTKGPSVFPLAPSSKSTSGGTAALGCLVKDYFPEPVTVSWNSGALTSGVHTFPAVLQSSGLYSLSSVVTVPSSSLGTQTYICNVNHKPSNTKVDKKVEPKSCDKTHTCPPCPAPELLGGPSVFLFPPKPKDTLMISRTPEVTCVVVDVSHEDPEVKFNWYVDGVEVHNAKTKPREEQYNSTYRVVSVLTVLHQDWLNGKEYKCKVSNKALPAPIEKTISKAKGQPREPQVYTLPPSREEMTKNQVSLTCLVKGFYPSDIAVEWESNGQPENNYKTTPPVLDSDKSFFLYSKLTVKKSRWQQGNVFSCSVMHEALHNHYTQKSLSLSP
light: B1 light
notes: copies: 2 + 2
B8: M103205H795-P1532m/M103202L889-SK1 (antibody, human IgG1, kappa, name in EU numbering)
heavy: not shown
light: B1 light
notes: copies: 2 + 2
B9: M103205H795-P1529m/M103202L889-SK1 (antibody, human IgG1, kappa, name in EU numbering)
heavy: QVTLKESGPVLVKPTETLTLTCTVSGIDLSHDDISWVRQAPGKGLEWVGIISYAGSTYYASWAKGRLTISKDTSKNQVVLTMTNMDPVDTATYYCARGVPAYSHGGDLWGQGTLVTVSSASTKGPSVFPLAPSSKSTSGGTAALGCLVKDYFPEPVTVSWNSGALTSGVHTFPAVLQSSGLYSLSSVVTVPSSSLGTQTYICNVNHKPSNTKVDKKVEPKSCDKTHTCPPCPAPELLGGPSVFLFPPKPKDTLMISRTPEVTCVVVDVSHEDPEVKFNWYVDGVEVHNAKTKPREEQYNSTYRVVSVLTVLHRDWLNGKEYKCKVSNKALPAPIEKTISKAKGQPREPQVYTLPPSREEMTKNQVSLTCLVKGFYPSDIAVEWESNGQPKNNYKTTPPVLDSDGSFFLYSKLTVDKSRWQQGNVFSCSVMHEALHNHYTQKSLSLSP
light: B1 light
notes: copies: 2 + 2
B10: M103205H795-P1535m/M103202L889-SK1 (antibody, human IgG1, kappa, name in EU numbering)
heavy: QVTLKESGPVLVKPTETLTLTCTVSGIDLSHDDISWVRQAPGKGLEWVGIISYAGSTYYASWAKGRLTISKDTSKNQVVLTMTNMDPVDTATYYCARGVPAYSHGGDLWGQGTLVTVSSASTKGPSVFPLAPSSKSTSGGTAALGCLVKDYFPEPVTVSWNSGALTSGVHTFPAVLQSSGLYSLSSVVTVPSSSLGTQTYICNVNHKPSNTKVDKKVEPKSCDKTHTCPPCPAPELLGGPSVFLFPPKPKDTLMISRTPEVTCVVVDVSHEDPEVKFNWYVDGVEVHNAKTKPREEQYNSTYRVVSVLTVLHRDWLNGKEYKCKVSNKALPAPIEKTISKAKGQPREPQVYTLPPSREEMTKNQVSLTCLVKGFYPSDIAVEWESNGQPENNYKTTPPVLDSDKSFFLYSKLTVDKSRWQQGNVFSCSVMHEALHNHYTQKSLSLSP
light: B1 light
notes: copies: 2 + 2
B11: M103205H795-P1542m/M103202L889-SK1 (antibody, human IgG1, kappa, name in EU numbering)
heavy: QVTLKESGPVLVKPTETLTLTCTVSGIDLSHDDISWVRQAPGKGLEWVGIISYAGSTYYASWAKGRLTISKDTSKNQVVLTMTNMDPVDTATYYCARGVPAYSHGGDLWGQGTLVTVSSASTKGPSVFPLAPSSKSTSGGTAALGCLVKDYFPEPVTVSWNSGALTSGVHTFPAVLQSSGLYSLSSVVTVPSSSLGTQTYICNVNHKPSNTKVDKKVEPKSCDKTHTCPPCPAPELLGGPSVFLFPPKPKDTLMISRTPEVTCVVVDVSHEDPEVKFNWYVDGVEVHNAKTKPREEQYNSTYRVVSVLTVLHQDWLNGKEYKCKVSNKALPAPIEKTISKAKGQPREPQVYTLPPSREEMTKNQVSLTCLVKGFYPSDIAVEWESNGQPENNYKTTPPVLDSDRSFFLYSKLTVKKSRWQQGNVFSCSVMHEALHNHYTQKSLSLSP
light: B1 light
notes: copies: 2 + 2
B12: M103205H795-P1534m/M103202L889-SK1 (antibody, human IgG1, kappa, name in EU numbering)
heavy: not shown
light: B1 light
notes: copies: 2 + 2
B13: M103205H795-P1537m/M103202L889-SK1 (antibody, human IgG1, kappa, name in EU numbering)
heavy: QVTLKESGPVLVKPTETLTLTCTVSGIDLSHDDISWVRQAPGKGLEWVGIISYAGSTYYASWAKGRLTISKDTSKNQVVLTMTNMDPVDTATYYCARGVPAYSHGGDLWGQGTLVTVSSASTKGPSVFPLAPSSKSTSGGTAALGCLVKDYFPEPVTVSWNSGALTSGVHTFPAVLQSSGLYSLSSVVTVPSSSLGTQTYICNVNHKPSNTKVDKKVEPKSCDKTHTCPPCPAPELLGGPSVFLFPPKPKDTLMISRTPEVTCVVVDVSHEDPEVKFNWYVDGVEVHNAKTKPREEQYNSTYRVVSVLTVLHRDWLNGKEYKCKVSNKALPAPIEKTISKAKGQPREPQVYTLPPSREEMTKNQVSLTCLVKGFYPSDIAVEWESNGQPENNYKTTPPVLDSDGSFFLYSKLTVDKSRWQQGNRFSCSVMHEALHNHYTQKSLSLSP
light: B1 light
notes: copies: 2 + 2
B14: M103205H795-P1536m/M103202L889-SK1 (antibody, human IgG1, kappa, name in EU numbering)
heavy: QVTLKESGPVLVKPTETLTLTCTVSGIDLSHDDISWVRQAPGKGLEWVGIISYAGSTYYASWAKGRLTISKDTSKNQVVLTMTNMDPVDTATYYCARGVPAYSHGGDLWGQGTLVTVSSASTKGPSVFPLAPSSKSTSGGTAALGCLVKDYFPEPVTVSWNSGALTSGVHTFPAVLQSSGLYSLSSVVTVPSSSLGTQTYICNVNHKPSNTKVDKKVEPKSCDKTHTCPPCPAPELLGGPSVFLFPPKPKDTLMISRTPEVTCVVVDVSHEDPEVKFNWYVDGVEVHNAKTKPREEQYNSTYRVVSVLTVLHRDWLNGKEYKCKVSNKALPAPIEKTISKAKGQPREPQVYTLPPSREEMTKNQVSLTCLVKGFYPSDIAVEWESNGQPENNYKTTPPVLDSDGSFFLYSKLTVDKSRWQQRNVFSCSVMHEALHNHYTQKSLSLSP
light: B1 light
notes: copies: 2 + 2
B15: M103205H795-P1533m/M103202L889-SK1 (antibody, human IgG1, kappa, name in EU numbering)
heavy: not shown
light: B1 light
notes: copies: 2 + 2
B16: M103205H795-P1539m/M103202L889-SK1 (antibody, human IgG1, kappa, name in EU numbering)
heavy: not shown
light: B1 light
notes: copies: 2 + 2

The binders below were run against T1, soluble mouse FcγRII, His-tagged (mouse, UniProt P08101 30-210, limits assumed) (assay: SPR, mouse FcγRII captured via His-tag, antigen-antibody complex injected, pH 7.4, 25 C).
T1 construct: Captured on the chip through an anti-His antibody
T1 sequence (looked up): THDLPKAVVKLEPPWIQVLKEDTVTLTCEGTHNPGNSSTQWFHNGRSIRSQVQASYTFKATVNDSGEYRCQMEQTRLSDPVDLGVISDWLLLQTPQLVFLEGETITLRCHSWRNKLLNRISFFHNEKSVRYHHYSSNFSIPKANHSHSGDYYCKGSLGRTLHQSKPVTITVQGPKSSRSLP
Experimental: Regarding the produced Fc region variant-containing antibodies, binding assays between soluble mouse FcγRII and antigen-antibody complexes were performed using BIACORE® T200 (GE Healthcare). Soluble mouse FcγRII was produced in the form of a His-tagged molecule by a method known to those skilled in the art. An appropriate amount of an anti-His antibody was fixed onto Sensor chip CM5 (GE Healthcare) by the amine coupling method using a His capture kit (GE Healthcare) to capture mouse FcγRII. Next, an antibody-antigen complex and a running buffer (as a reference solution) were injected, and interaction was allowed to take place with the mouse FcγRII captured onto the sensor chip. 20 mM N-(2-Acetamido)-2-aminoethanesulfonic acid, 150 mM NaCl, 1.2 mM CaCl₂), and 0.05% (w/v) TWEEN® 20 at pH7.4 was used as the running buffer, and the respective buffer was also used to dilute the soluble mouse FcγRII. To regenerate the sensor chip, 10 mM glycine-HCl at pH1.5 was used. All measurements were carried out at 25° C. […] To calculate the parameters, the BIACORE® T100 Evaluation Software (GE Healthcare) was used.

biacore IC binding (relative, SG1 = 1.00) | Binder
1.12 relative to SG1 | B1
1.57 relative to SG1 | B2
1.73 relative to SG1 | B3
1.11 relative to SG1 | B4
1.01 relative to SG1 | B5
1.09 relative to SG1 | B6
1.19 relative to SG1 | B7
1.23 relative to SG1 | B8
1.08 relative to SG1 | B9
1.11 relative to SG1 | B10
1.21 relative to SG1 | B11
1.12 relative to SG1 | B12
1.32 relative to SG1 | B13
1.16 relative to SG1 | B14
1.18 relative to SG1 | B15
0.9 relative to SG1 | B16

What follows are binders tested against T2, human FcγRIIb constitutively expressed on MDCK cells (human, UniProt P31994 43-310) (assay: cell-based or functional assay).
T2 sequence (looked up): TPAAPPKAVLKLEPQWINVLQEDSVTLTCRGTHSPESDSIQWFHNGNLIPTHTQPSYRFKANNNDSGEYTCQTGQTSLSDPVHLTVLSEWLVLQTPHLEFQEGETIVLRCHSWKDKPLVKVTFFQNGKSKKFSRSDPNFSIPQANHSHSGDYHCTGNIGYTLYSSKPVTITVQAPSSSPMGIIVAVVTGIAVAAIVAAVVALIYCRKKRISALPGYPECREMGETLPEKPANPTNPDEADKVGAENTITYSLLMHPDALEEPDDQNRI

celluar uptake (labelled human latent myostatin taken up as antigen-antibody complex) | Binder
3.02 relative to SG1 = 1.00 | B1
7.17 relative to SG1 = 1.00 | B2
7.64 relative to SG1 = 1.00 | B3
1.84 relative to SG1 = 1.00 | B4
2.35 relative to SG1 = 1.00 | B5
3.12 relative to SG1 = 1.00 | B6
3.7 relative to SG1 = 1.00 | B7
4.16 relative to SG1 = 1.00 | B8
2.86 relative to SG1 = 1.00 | B9
2.49 relative to SG1 = 1.00 | B10
3.32 relative to SG1 = 1.00 | B11
3.12 relative to SG1 = 1.00 | B12
2.77 relative to SG1 = 1.00 | B13
2.05 relative to SG1 = 1.00 | B14
3.52 relative to SG1 = 1.00 | B15
3.2 relative to SG1 = 1.00 | B16
